Assay results taken from patent publication US20140072613A1, “Compositions and Methods for Treating Cutaneous Scarring” (priority 2012, published 2014).

How the values were obtained:
Assay in all cases: biochemical
Format in all cases: biochemical
266 human kinases [1] = target: T1, 266 human kinases (Homo sapiens, UniProt O15146); conditions: MuSK(h); 100 μM
T1 sequence (O15146 24-869): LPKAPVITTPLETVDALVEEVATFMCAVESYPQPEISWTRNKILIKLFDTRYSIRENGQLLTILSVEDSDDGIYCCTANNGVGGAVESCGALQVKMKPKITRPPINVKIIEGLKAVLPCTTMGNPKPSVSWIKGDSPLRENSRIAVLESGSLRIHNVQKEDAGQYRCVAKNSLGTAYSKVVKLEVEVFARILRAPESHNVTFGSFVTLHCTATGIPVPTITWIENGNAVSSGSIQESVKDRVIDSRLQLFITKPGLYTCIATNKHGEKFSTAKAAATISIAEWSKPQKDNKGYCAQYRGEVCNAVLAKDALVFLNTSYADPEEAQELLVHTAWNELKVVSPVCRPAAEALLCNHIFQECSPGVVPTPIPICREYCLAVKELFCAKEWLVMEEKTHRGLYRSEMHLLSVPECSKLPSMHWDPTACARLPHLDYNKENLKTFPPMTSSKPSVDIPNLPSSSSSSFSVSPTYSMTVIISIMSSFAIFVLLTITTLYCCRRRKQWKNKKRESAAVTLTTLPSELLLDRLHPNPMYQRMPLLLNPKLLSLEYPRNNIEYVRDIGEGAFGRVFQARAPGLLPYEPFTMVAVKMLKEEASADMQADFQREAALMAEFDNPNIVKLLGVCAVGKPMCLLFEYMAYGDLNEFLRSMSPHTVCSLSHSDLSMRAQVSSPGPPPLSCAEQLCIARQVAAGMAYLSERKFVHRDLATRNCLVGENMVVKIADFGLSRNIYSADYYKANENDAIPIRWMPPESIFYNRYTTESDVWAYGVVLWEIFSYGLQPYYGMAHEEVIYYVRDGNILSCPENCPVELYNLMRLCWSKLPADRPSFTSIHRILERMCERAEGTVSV
How it was run: (§1)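 Steps: kinase transfers radiolabelled phosphate from ATP onto a positively charged substrate; the substrate is trapped on a negatively charged filter; bound radioactivity is counted by scintillation and compared with uninhibited (100%) activity.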

266 human kinases [2] = target: 266 human kinases (Homo sapiens, UniProt P00533, T790M); conditions: EGFR(T790M)(h); 100 μM
How it was run: as §1

266 human kinases [3] = target: 266 human kinases (Homo sapiens, UniProt P04629); conditions: TrkA(h); 100 μM
266 human kinases (Homo sapiens, UniProt P04629), sequence (P04629 33-796): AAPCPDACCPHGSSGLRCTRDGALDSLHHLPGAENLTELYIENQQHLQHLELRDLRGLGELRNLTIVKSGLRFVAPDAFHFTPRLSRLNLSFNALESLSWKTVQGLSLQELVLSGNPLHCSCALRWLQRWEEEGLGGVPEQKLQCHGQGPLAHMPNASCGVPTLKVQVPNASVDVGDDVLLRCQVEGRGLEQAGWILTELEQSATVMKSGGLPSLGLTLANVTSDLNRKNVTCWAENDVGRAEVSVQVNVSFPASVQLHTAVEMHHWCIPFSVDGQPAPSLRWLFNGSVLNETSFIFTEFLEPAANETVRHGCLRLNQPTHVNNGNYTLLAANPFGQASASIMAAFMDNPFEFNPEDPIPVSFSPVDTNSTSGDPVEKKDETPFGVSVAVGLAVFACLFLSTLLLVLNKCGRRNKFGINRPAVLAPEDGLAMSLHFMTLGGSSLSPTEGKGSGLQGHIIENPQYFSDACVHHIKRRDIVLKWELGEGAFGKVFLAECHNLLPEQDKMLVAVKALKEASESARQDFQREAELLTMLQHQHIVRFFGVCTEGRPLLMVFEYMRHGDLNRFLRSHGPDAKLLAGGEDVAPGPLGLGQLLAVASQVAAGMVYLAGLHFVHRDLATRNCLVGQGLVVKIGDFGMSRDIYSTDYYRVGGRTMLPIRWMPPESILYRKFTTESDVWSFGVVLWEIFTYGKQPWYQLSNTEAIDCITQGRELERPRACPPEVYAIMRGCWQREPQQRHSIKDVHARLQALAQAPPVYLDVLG
How it was run: as §1

266 human kinases [4] = target: 266 human kinases (Homo sapiens, UniProt P10721, V560G); conditions: cKit(V560G)(h); 100 μM
How it was run: as §1

266 human kinases [5] = target: 266 human kinases (Homo sapiens, UniProt P10721, V654A); conditions: cKit(V654A)(h); 100 μM
How it was run: as §1

266 human kinases [6] = target: 266 human kinases (Homo sapiens, UniProt P16234, V561D); conditions: PDGFRα(V561D)(h); 100 μM
266 human kinases (Homo sapiens, UniProt P16234, V561D), sequence (P16234 24-1089 V561D): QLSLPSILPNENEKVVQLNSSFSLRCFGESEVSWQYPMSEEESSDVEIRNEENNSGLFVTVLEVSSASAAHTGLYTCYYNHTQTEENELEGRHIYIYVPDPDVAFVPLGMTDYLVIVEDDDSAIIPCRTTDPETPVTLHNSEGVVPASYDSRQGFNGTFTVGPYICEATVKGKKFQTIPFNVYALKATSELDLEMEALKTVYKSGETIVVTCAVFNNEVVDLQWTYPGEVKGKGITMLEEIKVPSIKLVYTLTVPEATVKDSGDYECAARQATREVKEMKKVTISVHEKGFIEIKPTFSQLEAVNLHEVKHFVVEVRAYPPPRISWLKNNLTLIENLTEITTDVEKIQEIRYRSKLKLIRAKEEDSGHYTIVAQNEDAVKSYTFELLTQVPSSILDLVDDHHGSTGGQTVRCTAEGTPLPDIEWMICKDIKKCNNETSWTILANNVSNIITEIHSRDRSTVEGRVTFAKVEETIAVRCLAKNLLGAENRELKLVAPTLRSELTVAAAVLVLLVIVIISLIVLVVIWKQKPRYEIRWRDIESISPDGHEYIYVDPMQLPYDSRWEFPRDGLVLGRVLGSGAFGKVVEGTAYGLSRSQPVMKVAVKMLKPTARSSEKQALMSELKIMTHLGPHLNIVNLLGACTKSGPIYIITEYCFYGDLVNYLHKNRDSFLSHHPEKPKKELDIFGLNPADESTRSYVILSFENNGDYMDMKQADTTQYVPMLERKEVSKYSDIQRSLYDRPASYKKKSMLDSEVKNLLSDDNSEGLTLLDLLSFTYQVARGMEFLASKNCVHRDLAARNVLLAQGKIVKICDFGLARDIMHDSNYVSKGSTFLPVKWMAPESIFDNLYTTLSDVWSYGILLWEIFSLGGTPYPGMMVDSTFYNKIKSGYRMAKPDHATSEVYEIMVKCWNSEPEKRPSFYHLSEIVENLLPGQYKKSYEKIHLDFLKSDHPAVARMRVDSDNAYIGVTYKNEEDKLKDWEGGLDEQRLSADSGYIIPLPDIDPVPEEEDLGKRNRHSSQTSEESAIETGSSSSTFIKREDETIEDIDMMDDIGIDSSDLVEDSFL
How it was run: as §1

266 human kinases [7] = target: T2, 266 human kinases (Homo sapiens, UniProt P21709); conditions: EphA1(h); 100 μM
T2 sequence (P21709 26-976): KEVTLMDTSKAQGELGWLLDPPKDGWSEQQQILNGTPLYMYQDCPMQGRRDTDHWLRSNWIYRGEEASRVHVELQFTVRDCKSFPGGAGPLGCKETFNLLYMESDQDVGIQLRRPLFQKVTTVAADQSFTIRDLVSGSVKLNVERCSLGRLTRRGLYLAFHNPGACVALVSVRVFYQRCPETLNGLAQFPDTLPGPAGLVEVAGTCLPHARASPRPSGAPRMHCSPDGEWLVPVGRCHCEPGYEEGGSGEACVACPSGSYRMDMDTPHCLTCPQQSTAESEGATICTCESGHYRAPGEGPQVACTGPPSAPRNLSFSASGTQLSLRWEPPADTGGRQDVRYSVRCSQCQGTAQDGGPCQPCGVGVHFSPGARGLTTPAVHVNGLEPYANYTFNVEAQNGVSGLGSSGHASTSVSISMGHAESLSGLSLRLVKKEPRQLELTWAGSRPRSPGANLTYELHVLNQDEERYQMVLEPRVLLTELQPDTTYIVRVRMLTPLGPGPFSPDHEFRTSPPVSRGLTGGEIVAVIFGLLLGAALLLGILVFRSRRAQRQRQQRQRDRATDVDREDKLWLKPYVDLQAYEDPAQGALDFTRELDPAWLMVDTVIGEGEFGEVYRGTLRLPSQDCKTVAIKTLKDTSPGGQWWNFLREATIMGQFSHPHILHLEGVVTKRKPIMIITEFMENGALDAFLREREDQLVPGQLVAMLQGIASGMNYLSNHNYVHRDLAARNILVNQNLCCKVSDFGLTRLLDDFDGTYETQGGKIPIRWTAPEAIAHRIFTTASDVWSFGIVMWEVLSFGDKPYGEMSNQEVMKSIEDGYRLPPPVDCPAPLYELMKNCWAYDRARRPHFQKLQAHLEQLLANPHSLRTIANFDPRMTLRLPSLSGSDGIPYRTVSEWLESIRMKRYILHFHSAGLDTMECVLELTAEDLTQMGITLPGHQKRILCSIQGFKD
How it was run: as §1

266 human kinases [8] = target: 266 human kinases (Homo sapiens, UniProt P57059); conditions: SIK(h); 100 μM
How it was run: as §1

266 human kinases [9] = target: 266 human kinases (Homo sapiens, UniProt Q9H4B4); conditions: Plk3(h); 100 μM
266 human kinases (Homo sapiens, UniProt Q9H4B4), sequence (Q9H4B4 whole entry): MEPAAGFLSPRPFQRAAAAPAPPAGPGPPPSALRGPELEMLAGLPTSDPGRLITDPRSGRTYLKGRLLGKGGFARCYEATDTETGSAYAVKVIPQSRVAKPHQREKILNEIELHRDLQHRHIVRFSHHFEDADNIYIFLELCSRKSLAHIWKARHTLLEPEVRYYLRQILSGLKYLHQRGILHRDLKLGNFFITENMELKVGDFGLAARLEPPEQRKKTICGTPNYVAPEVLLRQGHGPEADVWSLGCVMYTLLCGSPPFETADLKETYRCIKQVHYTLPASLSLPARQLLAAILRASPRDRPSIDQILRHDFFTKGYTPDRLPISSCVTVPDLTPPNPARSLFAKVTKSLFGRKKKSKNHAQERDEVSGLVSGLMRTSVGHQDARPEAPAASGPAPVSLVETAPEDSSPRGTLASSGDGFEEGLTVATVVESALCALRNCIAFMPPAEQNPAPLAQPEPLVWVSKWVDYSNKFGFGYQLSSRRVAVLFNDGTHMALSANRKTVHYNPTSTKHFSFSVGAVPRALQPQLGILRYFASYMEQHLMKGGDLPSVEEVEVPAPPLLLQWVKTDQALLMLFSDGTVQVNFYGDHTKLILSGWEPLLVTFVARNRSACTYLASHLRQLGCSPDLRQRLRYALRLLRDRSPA
How it was run: as §1

266 human kinases [10] = target: 266 human kinases (Homo sapiens, UniProt Q9HBH9); conditions: Mnk2(h); 100 μM
266 human kinases (Homo sapiens, UniProt Q9HBH9), sequence (Q9HBH9 whole entry): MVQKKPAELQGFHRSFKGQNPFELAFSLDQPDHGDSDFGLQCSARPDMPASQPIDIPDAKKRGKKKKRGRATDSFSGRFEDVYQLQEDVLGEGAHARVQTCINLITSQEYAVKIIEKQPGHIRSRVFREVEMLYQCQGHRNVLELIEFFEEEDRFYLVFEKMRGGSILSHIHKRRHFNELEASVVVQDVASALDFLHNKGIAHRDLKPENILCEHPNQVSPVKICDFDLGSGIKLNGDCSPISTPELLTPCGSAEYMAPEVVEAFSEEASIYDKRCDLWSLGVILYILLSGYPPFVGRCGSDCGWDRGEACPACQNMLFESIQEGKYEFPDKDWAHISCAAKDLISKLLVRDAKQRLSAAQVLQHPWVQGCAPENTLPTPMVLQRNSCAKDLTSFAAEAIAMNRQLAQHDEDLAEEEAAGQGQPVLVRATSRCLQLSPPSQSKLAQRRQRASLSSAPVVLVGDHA
How it was run: as §1

266 human kinases [11] = target: 266 human kinases (Homo sapiens, UniProt Q9P0L2); conditions: MARK1(h); 100 μM
How it was run: as §1

266 human kinases [12] = target: 266 human kinases (Homo sapiens, UniProt P49760); conditions: CLK2(h); 100 μM
266 human kinases (Homo sapiens, UniProt P49760), sequence (P49760 whole entry): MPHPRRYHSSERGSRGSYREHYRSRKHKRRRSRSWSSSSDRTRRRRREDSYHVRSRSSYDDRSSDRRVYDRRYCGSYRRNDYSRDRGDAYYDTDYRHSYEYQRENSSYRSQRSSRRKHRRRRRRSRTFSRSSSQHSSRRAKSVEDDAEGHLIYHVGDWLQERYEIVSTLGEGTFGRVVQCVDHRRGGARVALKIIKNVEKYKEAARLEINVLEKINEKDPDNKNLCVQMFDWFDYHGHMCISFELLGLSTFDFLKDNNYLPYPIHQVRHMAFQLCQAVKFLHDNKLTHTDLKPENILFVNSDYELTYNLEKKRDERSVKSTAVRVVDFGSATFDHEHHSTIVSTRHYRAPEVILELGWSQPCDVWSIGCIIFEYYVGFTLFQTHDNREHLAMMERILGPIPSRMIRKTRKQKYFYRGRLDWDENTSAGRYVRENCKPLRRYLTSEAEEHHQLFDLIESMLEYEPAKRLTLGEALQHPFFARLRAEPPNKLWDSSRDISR
How it was run: as §1

266 human kinases [13] = target: 266 human kinases (Homo sapiens, UniProt Q02763, R849W); conditions: Tie2(R849W)(h); 100 μM
266 human kinases (Homo sapiens, UniProt Q02763, R849W), sequence (Q02763 23-1124 R849W): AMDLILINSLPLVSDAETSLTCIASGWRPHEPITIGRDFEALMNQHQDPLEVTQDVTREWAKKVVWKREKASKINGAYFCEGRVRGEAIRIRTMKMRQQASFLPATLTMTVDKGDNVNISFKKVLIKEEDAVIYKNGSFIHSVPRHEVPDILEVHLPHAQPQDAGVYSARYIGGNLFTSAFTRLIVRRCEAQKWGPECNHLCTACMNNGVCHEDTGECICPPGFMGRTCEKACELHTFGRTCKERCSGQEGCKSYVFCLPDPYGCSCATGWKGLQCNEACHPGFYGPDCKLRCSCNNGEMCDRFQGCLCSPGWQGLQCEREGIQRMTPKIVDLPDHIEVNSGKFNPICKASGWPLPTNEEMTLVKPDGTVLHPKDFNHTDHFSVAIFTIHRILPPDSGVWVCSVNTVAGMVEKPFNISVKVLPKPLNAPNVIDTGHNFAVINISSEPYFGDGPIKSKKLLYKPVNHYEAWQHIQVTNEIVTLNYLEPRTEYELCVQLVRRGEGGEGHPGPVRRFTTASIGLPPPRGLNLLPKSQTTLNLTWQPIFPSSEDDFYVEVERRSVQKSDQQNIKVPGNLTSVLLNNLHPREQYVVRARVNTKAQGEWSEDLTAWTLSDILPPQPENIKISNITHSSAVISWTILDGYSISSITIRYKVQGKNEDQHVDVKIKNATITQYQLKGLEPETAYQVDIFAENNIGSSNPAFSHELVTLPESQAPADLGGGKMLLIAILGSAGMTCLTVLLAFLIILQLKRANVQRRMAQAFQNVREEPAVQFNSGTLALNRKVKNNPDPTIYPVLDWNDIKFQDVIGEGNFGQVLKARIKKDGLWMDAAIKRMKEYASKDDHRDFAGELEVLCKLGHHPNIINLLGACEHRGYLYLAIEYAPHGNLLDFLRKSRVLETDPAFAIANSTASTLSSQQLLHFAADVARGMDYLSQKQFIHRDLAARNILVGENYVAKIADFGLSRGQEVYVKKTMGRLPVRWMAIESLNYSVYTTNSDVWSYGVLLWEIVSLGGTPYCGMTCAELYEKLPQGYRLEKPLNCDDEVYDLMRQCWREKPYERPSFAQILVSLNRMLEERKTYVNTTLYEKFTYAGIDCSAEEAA
How it was run: as §1

266 human kinases [14] = target: 266 human kinases (Homo sapiens, UniProt Q9Y6M4); conditions: CK1γ3(h); 100 μM
266 human kinases (Homo sapiens, UniProt Q9Y6M4), sequence (Q9Y6M4 whole entry): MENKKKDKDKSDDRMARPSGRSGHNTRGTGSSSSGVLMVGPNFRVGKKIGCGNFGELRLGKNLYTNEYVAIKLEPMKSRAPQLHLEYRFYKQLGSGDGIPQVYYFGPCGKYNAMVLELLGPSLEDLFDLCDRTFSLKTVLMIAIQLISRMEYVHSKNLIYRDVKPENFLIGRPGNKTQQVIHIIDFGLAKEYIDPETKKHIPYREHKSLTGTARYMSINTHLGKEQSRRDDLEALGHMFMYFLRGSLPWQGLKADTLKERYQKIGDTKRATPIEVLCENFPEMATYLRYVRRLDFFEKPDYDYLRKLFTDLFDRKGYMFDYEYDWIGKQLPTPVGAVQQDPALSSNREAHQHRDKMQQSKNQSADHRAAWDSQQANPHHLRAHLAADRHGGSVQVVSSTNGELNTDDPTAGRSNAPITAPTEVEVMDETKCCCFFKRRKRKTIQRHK
How it was run: as §1

Row | Sequence | % activity (266 human kinases [1]) | % activity (266 human kinases [2]) | % activity (266 human kinases [3]) | % activity (266 human kinases [4]) | % activity (266 human kinases [5]) | % activity (266 human kinases [6]) | % activity (266 human kinases [7]) | % activity (266 human kinases [8]) | % activity (266 human kinases [9]) | % activity (266 human kinases [10]) | % activity (266 human kinases [11]) | % activity (266 human kinases [12]) | % activity (266 human kinases [13]) | % activity (266 human kinases [14])
1 | HRRIKAWLKKIKALARQLGVAA (mammal) [MMI-0500] | 27% | 70% | 24% | 198% | 223% | 146% | 40% | 40% | 122% | 6% | 110% | – | – | –
2 | YARAAARQARAKALNRQLGVA (mammal) [MMI-0200] | – | – | – | – | – | – | – | – | – | – | – | 97% | 89% | 96%
